No end group written: not given here.
Key:
Experiment in all cases: phage ELISA
BSA = target: T1, BSA (UniProt P02769 25-607)
T1 construct: Negative control target; also called bovine serum albumin
Experimental: (§1) Wells of a 96-well microplate (Nunc, Maxisorp) were either coated with human Fc fragment solution or streptavidin as negative control. The wells were blocked with BSA and contacted with amplified population of each individual clone. Bound phages were detected by the addition of horseradish peroxidase (HRP)-conjugated anti-M13 monoclonal antibodies using the chromogenic substrate (3,3′,5,5′-tetramethylbenzidine (TMB)) solution, and absorbance at 450 nm was measured.
(§2) The binding activity of phage clone displaying the minimized peptide SEQ ID NO: 2, was further evaluated by phage ELISA (as described above) using different subclasses of native human IgGs and different therapeutic monoclonal antibodies. BSA, avidin and SA were used as targets in negative control wells.

avidin = target: T2, avidin (UniProt P02701 25-152)
T2 construct: Negative control target
T2 sequence (P02701 25-152 limits assumed): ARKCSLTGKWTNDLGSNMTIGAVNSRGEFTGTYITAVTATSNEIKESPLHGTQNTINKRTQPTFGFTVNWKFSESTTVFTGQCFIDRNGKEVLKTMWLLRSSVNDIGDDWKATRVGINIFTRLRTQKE
Experimental: as §1, §2

streptavidin = target: T3, streptavidin (UniProt P22629 37-163, limits assumed)
T3 construct: Negative control target; also called SA
T3 sequence (P22629 37-163 limits assumed): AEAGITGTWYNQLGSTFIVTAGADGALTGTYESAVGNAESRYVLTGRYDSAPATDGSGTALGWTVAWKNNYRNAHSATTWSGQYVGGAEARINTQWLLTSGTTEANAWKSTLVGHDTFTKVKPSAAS
Experimental: as §1, §2

Measured: binding result

T1 sequence (P02769 25-607 limits assumed): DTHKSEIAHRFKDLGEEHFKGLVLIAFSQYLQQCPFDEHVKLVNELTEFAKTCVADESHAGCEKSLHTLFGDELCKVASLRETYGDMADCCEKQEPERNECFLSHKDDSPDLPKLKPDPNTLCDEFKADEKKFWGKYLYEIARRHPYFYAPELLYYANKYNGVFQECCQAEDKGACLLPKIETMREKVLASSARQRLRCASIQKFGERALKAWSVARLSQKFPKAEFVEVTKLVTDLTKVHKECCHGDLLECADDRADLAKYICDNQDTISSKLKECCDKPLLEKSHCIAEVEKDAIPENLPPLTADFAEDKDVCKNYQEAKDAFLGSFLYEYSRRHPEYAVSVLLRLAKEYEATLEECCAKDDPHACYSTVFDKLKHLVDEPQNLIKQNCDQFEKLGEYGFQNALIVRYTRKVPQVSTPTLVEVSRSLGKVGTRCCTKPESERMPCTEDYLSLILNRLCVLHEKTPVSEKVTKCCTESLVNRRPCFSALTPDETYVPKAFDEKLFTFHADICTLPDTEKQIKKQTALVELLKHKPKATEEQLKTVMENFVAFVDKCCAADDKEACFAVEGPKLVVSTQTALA

B1: phage clone displaying the minimized peptide SEQ ID NO: 2 (peptide, not shown: large carriers)
peptide: GSYWYQVWF
modifications: also: displayed on phage as P3 coat protein fusion, fusion limits and linker not given here
no binding: BSA | avidin | streptavidin

Source: US20210054042A1 (UNIVERZA V LJUBLJANI, published 2021)
